From patent US20250332277A1, “PROTEIN TYROSINE KINASE 7 ANTIBODIES AND ANTIBODY-DRUG CONJUGATES” (Eli Lilly and Company, priority 2024, published 2025)

Columns and labels:
[1] = system: HeLa PTK-7-eGFP overexpressing engineered cells; assay: Internalization / lysosomal trafficking by pHrodo fluorescence imaging; type: cell-based, human; settings: 6 μg/ml (40 nM)
Experimental: Single clone HeLa PTK-7-eGFP overexpressing engineered cells were plated at 5,000 cells per well in a 384-well plate (PhenoPlate 384-well, black, optically clear flat-bottom, tissue-culture treated, PerkinElmer 6057308) in complete culture medium (DMEM, +10% FBS+Glutamax+Pen/Strep). Next day, the cells were treated with 6 μg/ml (40 nM) ADCs or antibodies and pHrodo labeling reagent (Zenon™ pHrodo™ iFL IgG labeling reagents, Catalog number: Z25612, Invitrogen™) with concentration of 6 μg/mL (120 nM). The ADCs or antibodies was mixed with pHrodo labeling reagent for at least 10 min prior to adding to the cells. Then, the cells were imaged using the Opera Phenix Plus high-content screening system every 90 min up to 24 hours. Data were processed and analyzed in Harmony and Microsoft Excel and graphed in GraphPad Prism.

OV90-PTK-7 = assay: Cell surface binding by flow cytometry, OV90-PTK-7 (high expression); type: cell-based, human; settings: Cofetuzumab max MFI set at 100%
Experimental: (§1) Certain PTK-7 antibodies of the present disclosure were tested for cell surface binding to three PTK-7 expressing tumor cell lines. Cell lines were selected to represent high, medium, and low receptor densities. OV90-PTK-7, overexpressing engineered ovarian tumor line representing high expression, NCI-H446 human lung cancer cells representing medium endogenous expression and OVCAR-3 human ovarian cancer cells representing low endogenous expression. […] OV90 parental cells and Namalwa-luc-GFP cells were selected as the PTK-7 negative cell lines. Antibody binding was quantified via flow cytometry and both the EC50 of the binding curves and the maximum binding MFI for each antibody were recorded.
(§2) Cells were dissociated using non-enzymatic dissociation buffer for 5 min at 37° C. Cells were counted and aliquoted to a V-bottom polypropylene 96-well plate at 10^5 cells/well. Cells were centrifuged at 1800 rpm×3 min and the supernatant discarded. […]
(§3) Cells were acquired on an Attune Cytpix Cytometer and FCS files generated using Attune™ Cytometric Software (v. 6.0.1). FCS files were then analyzed on FlowJo (v10.8.1). […] Finally, dead cells positive for staining with Zombie Green were excluded and the MFIs of live, Alexa647 positive cells were quantified. Data was graphed and analyzed on GraphPad Prism (v10.1.1).

[2] = system: NCI-H446 human lung cancer cells; assay: Cell surface binding by flow cytometry, NCI-H446 (medium expression); type: cell-based; settings: Cofetuzumab max MFI set at 100%
Experimental: as §1, §2, §3

[3] = system: OVCAR-3 human ovarian cancer cells; assay: Cell surface binding by flow cytometry, OVCAR3 (low expression); type: cell-based; settings: Cofetuzumab max MFI set at 100%
Experimental: as §1, §2, §3

OV90-human PTK7 cells = assay: In vitro CDC assay with human serum complement; type: cell-based; settings: PTK-7 expressing OV90 cell line, 3 hours
Experimental: OV90 cell line was engineered to express high level of human PTK7, having antibody binding capacity of 500,000 (using MESF quantification kit, Bangs Laboratories). OV90-human PTK7 cells were added in white clear-bottom 96-well tissue culture plates in assay medium (1:1 MCDB105/Medium199+1×GlutaMax+15% Heat Inactivated Fetal Bovine Serum) and incubated in the incubator at 37° C. with 5% CO2 overnight. Next day, 50 μL/well antibodies were added at final working concentration from 200 nM, 1:3 serially diluted in assay medium and incubated at 37° C. with 5% CO2 for one hour. Diluted human serum complement (1:3) was then added at 50 μL/well in assay medium and incubated at 37° C. with 5% CO2 for 3 hours. Plate was read using CellTiter-Glo Luminescent Cell Viability Assay. 100 μL/well CellTiter-Glo reagent were incubated in plates at room temperature for 10 min. Luminescence was read on a SpectraMax M5e. RLUs (Relative Light Units) were obtained with SoftMax Pro 5.4. Percentage of cell killing was calculated against no treatment. Data was graphed and analyzed using GraphPad Prism version 9.5.1.

OVCAR-3 = assay: ADC cytotoxicity (CellTiter-Glo) on low PTK-7 expressing cells; type: cell-based, human; settings: 7 days treatment
Experimental: OVCAR3 cells were seeded in white clear-bottom 96-well tissue culture plates in culture medium (OVCAR3: ATCC modified RPMI 1640+1× GlutaMax+20% Heat Inactivated Fetal Bovine Serum+10 μg/mL bovine insulin). Cells were incubated at 37° C. with 5% CO2 overnight. Next day, ADCs were added at final working concentration from 200 nM, 1:4 serially diluted in culture medium. Plates were covered with Breathe-Easy® sealing membrane and incubated at 37° C. with 5% CO2. Plates were read after 7 days treatment using CellTiter-Glo Luminescent Cell Viability Assay. 100 μL/well CellTiter-Glo reagent were incubated in plates at room temperature for 10 min. Luminescence was read in the SpectraMax M5e. RLUs (Relative Light Units) were obtained with SoftMax Pro 5.4. Percentage of cell killing was calculated against no treatment as 0%. Data was graphed and analyzed using Graphpad Prism version v10.1.1. IC50 was determined via log (inhibitor) vs. response-variable slope (four parameters) curve fitting.

[4] = system: Namalwa-Luc-GFP cells co-cultured with OV90-PTK-7; assay: Bystander effect on Namalwa-Luc-GFP co-cultured with OV90-PTK-7 (ONE-Glo); type: cell-based; settings: OV90-PTK-7 + Namalwa-Luc-GFP, ratio 2:1; 5-days treatment; Namalwa-Luc-GFP killing
Experimental: (§4) In flat clear bottom 96-well plates, OV90-PTK-7: Namalwa-Luc-GFP clone cells were mixed and seeded at a total of 3000 cells/well/100 μL with a ratio of 2:1 in culture medium (1:1 MCDB105: Medium 199+15% Heat Inactivated Fetal Bovine Serum+1×Glutamax). Namalwa-Luc-GFP cells were negative for PTK-7 expression. Plates were incubated at 37° C. with 5% CO2 overnight. Next day, ADCs were added at final working concentration from 50 nM, 1:4 serially diluted in culture medium. Plates were covered with Breathe-Easy® sealing membrane. Plates were read after 5-days treatment using ONE-Glo™ Luciferase Assay System. 100 μL/well ONE-Glo™ Assay reagent was incubated in plates at room temperature for 10 min. Luminescence was read in the SpectraMax M5e. RLUs (Relative Light Units) were obtained with SoftMax Pro 5.4. Percentage of Namalwa-Luc-GFP killing was calculated against no treatment as 0%. Data was graphed and analyzed using Graphpad Prism version v10.1.1. IC50 was determined via log (inhibitor) vs. response (three parameters) curve fitting for ADC cytotoxicity.

[5] = system: Namalwa-Luc-GFP cells co-cultured with NCI-H446; assay: Bystander effect on Namalwa-Luc-GFP co-cultured with NCI-H446 (ONE-Glo); type: cell-based; settings: ratio 9:1, 7-days treatment, Namalwa-Luc-GFP killing
Experimental: as §4
In flat clear bottom 96-well plates, NCI-H446: Namalwa-Luc-GFP clone cells were mixed and seeded at a total of 5000 cells/well/100 μL with a ratio of 9:1 in culture medium (RPMI 1640+10% Heat Inactivated Fetal Bovine Serum+1× Glutamax+1 mM sodium pyruvate). […] Plates were read after 7-days treatment using ONE-Glo™ Luciferase Assay System.

OVCAR3 = OVCAR3 tumor xenograft model; type: in vivo, mice; settings: OVCAR3 (Day 61); single intravenous dose 2 mg/kg
Experimental: Tumors were measured biweekly using a digital caliper.

B1: Ab1: fully human PTK-7 antibody, human IgG1-AAS (L234A/L235A/D265S), kappa; HC SEQ ID NO: 2, LC SEQ ID NO: 3 (antibody)
heavy: EVQLVESGGGLVKPGGSLRLSCAASGFTFSSYIMNWVRQAPGKGLEWVSSISSSSTFIYYADSVKGRFTISRDNAKNSLYLQMNSLRAEDTAVYYCAKGFDYWGQGTLVTVSSASTKGPSVFPLAPSSKSTSGGTAALGCLVKDYFPEPVTVSWNSGALTSGVHTFPAVLQSSGLYSLSSVVTVPSSSLGTQTYICNVNHKPSNTKVDKRVEPKSCDKTHTCPPCPAPEAAGGPSVFLFPPKPKDTLMISRTPEVTCVVVSVSHEDPEVKFNWYVDGVEVHNAKTKPREEQYNSTYRVVSVLTVLHQDWLNGKEYKCKVSNKALPAPIEKTISKAKGQPREPQVYTLPPSREEMTKNQVSLTCLVKGFYPSDIAVEWESNGQPENNYKTTPPVLDSDGSFFLYSKLTVDKSRWQQGNVFSCSVMHEALHNHYTQKSLSLSPGK
light: DIQLTQSPSFLSASVGDRVTITCRASQDISSYLVWYQQKPGKAPKLLIYAASTLQSGVPSRFSGSGSGTEFTLTISSLQPEDFATYYCQQLNTYPRTFGQGTKVEIKRTVAAPSVFIFPPSDEQLKSGTASVVCLLNNFYPREAKVQWKVDNALQSGNSQESVTEQDSKDSTYSLSSTLTLSKADYEKHKVYACEVTHQGLSSPVTKSFNRGEC
pHrodo intensity signal at 24 hrs ([1]; Antibodies): 3.00 ± 0.1

B2: Ab4: fully human PTK-7 antibody, human IgG1-AAS (L234A/L235A/D265S), kappa; HC SEQ ID NO: 32, LC SEQ ID NO: 33 (antibody)
heavy: EVQLVESGGGLVKPGGSLRLSCAASGFTFSSYSMNWVRQAPGKGLEWVSSIDSSSSFIYYADSVKGRFTISRDNAKNSLYLQMNSLRAEDTAVYYCARGTGLFDFWGQGTLVTVSSASTKGPSVFPLAPSSKSTSGGTAALGCLVKDYFPEPVTVSWNSGALTSGVHTFPAVLQSSGLYSLSSVVTVPSSSLGTQTYICNVNHKPSNTKVDKRVEPKSCDKTHTCPPCPAPEAAGGPSVFLFPPKPKDTLMISRTPEVTCVVVSVSHEDPEVKFNWYVDGVEVHNAKTKPREEQYNSTYRVVSVLTVLHQDWLNGKEYKCKVSNKALPAPIEKTISKAKGQPREPQVYTLPPSREEMTKNQVSLTCLVKGFYPSDIAVEWESNGQPENNYKTTPPVLDSDGSFFLYSKLTVDKSRWQQGNVFSCSVMHEALHNHYTQKSLSLSPGK
light: EIVLTQSPGTLSLSPGERATLSCRASQSFSSSYLAWYQQKPGQAPRLLIYGASSRATGIPDRFSGSGSGTDFTLTISRLEPEDFAVYYCQQYGRTPWTFGQGTKVEIKRTVAAPSVFIFPPSDEQLKSGTASVVCLLNNFYPREAKVQWKVDNALQSGNSQESVTEQDSKDSTYSLSSTLTLSKADYEKHKVYACEVTHQGLSSPVTKSFNRGEC
pHrodo intensity signal at 24 hrs ([1]; Antibodies): 2.83 ± 0.18

B3: Cofetuzumab: humanized anti-PTK-7 IgG1 antibody (hu6M024) with the sequence as disclosed in WO2012112943 (antibody, chains of the INN, looked up, V domains shown)
VH: QVQLVQSGPEVKKPGASVKVSCKASGYTFTDYAVHWVRQAPGKRLEWIGVISTYNDYTYNNQDFKGRVTMTRDTSASTAYMELSRLRSEDTAVYYCARGNSYFYALDYWGQGTSVTVSS
VL: EIVLTQSPATLSLSPGERATLSCRASESVDSYGKSFMHWYQQKPGQAPRLLIYRASNLESGIPARFSGSGSGTDFTLTISSLEPEDFAVYYCQQSNEDPWTFGGGTKLEIK
% of Cofetuzumab (Average Max MFI) (OV90-PTK-7): 100%
% of Cofetuzumab (Average Max MFI) [2]: 100%
% of Cofetuzumab (Average Max MFI) [3]: 100%
pHrodo intensity signal at 24 hrs ([1]; Antibodies): 2.44 ± 0.14
CDC potential (OV90-human PTK7 cells): did not show CDC potential

B4: Cofetuzumab-Pelidotin: ADC with a cleavable valine-citrulline linker, auristatin-0101 as the payload with a drug-to-antibody ratio (DAR) of 4 (conjugate, chains of the INN, looked up)
VH: B3 VH
VL: B3 VL
modifications: pelidotin: vc linker, auristatin-0101, DAR 4
pHrodo intensity signal at 24 hrs ([1]; ADCs): 1.71 ± 0.06
IC50 (OVCAR-3): 2.53 nM
IC50 [4]: 1.5 nM
IC50 [5]: 3.18 nM
Mean tumor volume (OVCAR3): 352.26 mm^3
